Laboratory results: article PMC7015241
pKd: −log10 of the molar value. Where two headings read alike, the source gives them in different places. Each block holds one substance with its values, some of them ahead of it.

Columns and labels:
[1] = biological target: F-actin (Oryctolagus cuniculus) (UniProt P68135); details: cited from earlier work
[2] = biological target: F-actin (Oryctolagus cuniculus) (UniProt P68135); details: cited from earlier work; remark: listed apart in the source
[3] = biological target: Filamentous actin (F-actin) (rabbit) (UniProt P68135); assay: co-sedimentation; 1–30 μM polymerized actin incubated with 10 μM MYPN Ig3, Ig4 or Ig3–4 domain for 1 h in 100 μL, 150 000×g for 30 min; SDS-PAGE of supernatants and pellets, densitometry; F-buffer (Tris, KCl, MgCl2, DTT, pH 8.0)

Substance: PALLD Ig3-4 (from UniProt Q9ET54)
- pKd [1]: 5.05

Substance: PALLD Ig3 (from UniProt Q9ET54)
- pKd [2]: 4.15

- pKd [3]: 5.12
Substance: Myopalladin (MYPN) Ig3 domain (domain or fragment)
